7 molecules from patent publication US20200385487A1 (PURDUE PHARMA L P, published 2020) can be followed below.

Assay [1] deals with T1, Recombinant Human Coagulation Factor III (tissue factor), R&D Systems (human, UniProt P13726 33-251).
T1 construct: Bought reagent
Nature of the assay: ELISA: 100 ng/well Recombinant Human Coagulation Factor III coated on plate, antibody titrated 1000 to 0.97 ng/ml, goat anti-human Fc-HRP, TMB, OD at 450 nm. On the procedure:
The binding of humanized variants of TF antibody B278, including B278-LC7HC4, LC7HC5, LC7HC6, LC8HC4, LC8HC5, and LC8HC6 variants, to recombinant human coagulation factor III (tissue factor) was assessed by ELISA analysis. The chimeric antibody B278-LC0HC0 was used as a control. In brief, 100 ng/well of Recombinant Human Coagulation Factor III (R&D Systems, UK) was immobilized onto 96 well Maxisorp plates in coating buffer (0.5 mM NaHCO₃ brought to pH 9.5 by the addition of 0.5 mM Na₂CO₃) overnight at 4° C. Coating buffer was removed and the plates were washed once in PBS Tween (PBS-T) (0.05% (v/v) Tween 20). 200 μl per well of 3.0% (w/v) semi skim milk in PBS was added and the plates were agitated for 2 hours at room temperature. Plates were washed three times with PBS-T.
Purified humanized variants of the TF antibody B278 (LC7HC4; LC7HC5; LC7HC6; LC8HC4; LC8HC5; LC8HC6) were serially diluted from 1,000 ng/ml to 0.97 ng/ml in incubation buffer (PBS, 1% (w/v) BSA), and 100 μl added per well.
Following agitation for two hours at room temperature, the plate was washed three times with PBS-T. 100 μl/well of goat anti-human HRP (Fc specific) (Sigma, UK) (1:60,000 PBS) was added and plates incubated for one hour with agitation at room temperature. The plates were washed three times with PBS-T and once in PBS. 100 μl/well of 3,3′,5,5′-Tetramethylbenzidine (TMB) substrate solution was added and incubated at 37° C. for 10 minutes. 50 μl of 1M HCl were added per well and the plates immediately read at 450 nm on a Tecan Sunrise plate reader.
On the technique in general: ELISA stands for enzyme-linked immunosorbent assay.

The target of assay [2] is T2, recombinant soluble human tissue factor (hTF) (human, UniProt P13726 33-251).
T2 construct: also called soluble hTF
Nature of the assay: SPR (Biacore X), soluble hTF immobilized on CM5 chip, antibody injected; global fit Langmuir 1:1. On the procedure:
Binding properties of anti-hTF MAbs were evaluated using a Biacore X (Biacore Inc., Uppsala, Sweden). Briefly, a CM5 Biacore biosensor chip was docked into the instrument and activated with 55 μL of 1:1 NHS/EDC reagent (Biacore Inc.) at room temperature. The recombinant soluble hTF and BSA (10 μg/mL in 0.05 M acetate buffer, pH 4.5) were immobilized on the activated chip in flow cells 1 and 2, respectively. Immobilization was carried out at a flow rate of 5 μL/min until a resonance response of 1000-2000 RU was achieved. The chip was then blocked by injection of 55 μL of ethanolamine-HCl, pH 8.5, followed by five washes with 50 mM NaOH, 1 M NaCl.
To measure the binding of anti-hTF MAbs to the soluble hTF immobilized to the chip, 30 μL of anti-hTF MAbs at varying concentrations in Biacore running buffer (HBS-EP, Biacore Inc.) were injected over the sensor surface at a flow rate of 5 μL/min. Following completion of the injection phase, dissociation was monitored in BIAcore running buffer at the same flow rate for 360 sec. The surface was regenerated between injections using 30 μL of 50 mM NaOH-1 M NaCl. Individual sensorgrams were analyzed using […] software. Results for the Biacore/SPR binding analyses are shown in FIGS. 11A and 11B and Table 7.

Changes are numbered by the printed parent chain.

As usually defined, the EC50 (read off the curve) is the concentration that produces a half-maximal response. What is called Kd is the concentration at which binding is half-saturated. By koff is commonly meant a measure of how fast the partners let go of each other. In general, kon refers to the second-order rate constant of association.

B1: chimeric antibody B278-LC0HC0 (antibody, V domains shown)
VH: EVQLQQSGAELMKPGASVKISCKATGYTFSSYWIEWVKQRPGHGLEWIGEILPGSASTKYNEKFKGKATFTADTSSNTAYMQLSSLTSEDSAVYYCARDYYYGSSYGFAYWGQGTLVTVSS
VL: QAVVTQESALTTSPGETVTLTCRSSTGAVTTSNYANWVQEKPDHLFTGLIGGTNNRGPGVPARFSGSLIGDKAALTITGAQTEDEAVYFCALWYSNHWVFGGGTKLTVLG
notes: also called Ab LC0HC0 (chimeric B278); chimeric B278 control antibody
Consider B1, for which the “EC50 (read off the curve)” value in assay [1] was roughly 0.04 µg/mL. For the same molecule, in assay [2], the Kd amounted to 24.9 nM, the koff is 0.0011 s⁻¹ and the kon was found to be 43000 M⁻¹ s⁻¹.

B2: humanized tissue factor antibody B278-LC7HC6 variant (antibody, human IgG1, lambda, V domains shown)
VH: B1 VH with L11V, T25S, R40A, H43Q, K67R, A68V, S76T, Q82E, T87R, S91T
VL: QAVVTQEPSLTVSPGGTVTLTCRSSTGAVTTSNYANWVQQKPGQLPKGLISGTNNRGPWTTARFSGSILGDKAVLTLWGAHTEDEAVYYCALWYSNHWVFGGGTKLTVLG
notes: Full-length humanized antibody; Expressed transiently in CHO cells; also called Ab LC7HC6; PS-F09-2016-012
Consider B2, for which, in assay [2], the Kd is 25.3 nM, the off-rate (koff) came out at 0.0007 s⁻¹ and the kon was determined as 28000 M⁻¹ s⁻¹.

B3: LC7HC5 (antibody, V domains shown)
VH: QVQLQESGAEVKKPGASVKVSCKASGYTFSSYWIEWVRQAPGQGLEWMGEILPGSASTKYNEKFKGRVTMTADTSTNTVYMELSSLRSEDTAVYYCARDYYYGSSYGFAYWGQGTLVTVSS
VL: B2 VL
notes: Humanized B278 variant, expressed transiently in CHO cells; also called B278-LC7HC5; B278-LC7HC5 variant
Turning to B3, the “EC50 (read off the curve)” value in assay [1] was roughly 0.05 µg/mL.

B4: LC8HC5 (antibody, V domains shown)
VH: B3 VH
VL: QSALIQPPSVSGSPGQSVTISCRSSTGAVTTSNYANWVQQHPGTVPKPMIYGTNNRGPGVPDRFSGSKSGNTASMTISGLQAEDEADYFCALWYSNHWVFGGGTKLTVLG
notes: Humanized B278 variant, expressed transiently in CHO cells; also called B278-LC8HC5; B278-LC8HC5 variant
For B4, the binding result in assay [1] is recorded as “no binding (tested: 1000 ng/ml)”.

B5: LC8HC6 (antibody, V domains shown)
VH: B3 VH with Q1E, E6Q, K12M, V20I, R38K, M48I, M70F, V79A
VL: B4 VL
notes: Humanized B278 variant, expressed transiently in CHO cells; also called B278-LC8HC6; B278-LC8HC6 variant
Regarding B5, in assay [1], the binding result was “no binding (tested: 1000 ng/ml)”.

B6: LC8HC4 (antibody, V domains shown)
VH: B3 VH with A72R, N77S
VL: B4 VL
notes: Humanized B278 variant, expressed transiently in CHO cells; also called B278-LC8HC4; B278-LC8HC4 variant
In the case of B6, the binding result in assay [1] is on record as “no binding (tested: 1000 ng/ml)”.

B7: LC7HC4 (antibody, V domains shown)
VH: B3 VH with A72R, N77S
VL: B2 VL
notes: Humanized B278 variant, expressed transiently in CHO cells; also called B278-LC7HC4; B278-LC7HC4 variant
For the molecule B7, the “EC50 (read off the curve)” value in assay [1] was roughly 0.06 µg/mL.
